According to US20030124590A1, “Carbohydrate response element binding protein and uses thereof” (priority 2001, published 2003):
No end group written: not given here.

Tests used:
[1] = tested on: L-PK gene; test: Glucose-induced L-PK transcription (luciferase) in ChREBP overexpressed hepatocytes with fatty acids or AICAR; assay type: cell-based, rat; details: 27.5 mM glucose
Description: After a six h attachment period, hepatocytes were transfected using synthetic liposome (Lipofectamine 2000; Life Technologies) in Opti-MEM I reduced serum medium as described (Yamashita et al. Proc. Natl. Acad. Sci. USA 98, 9116-9121) and incubated for 12 h. As a control, hepatocytes were exposed to synthetic liposome in the same manner as each experimental group. […] The source of albumin for all studies was essentially fatty acid-free bovine serum albumin. Transfected cells were cultured for 12 h in culture medium containing 27.5 mM glucose plus 150 μM albumin-bound specific fatty acids or AICAR, washed twice with 2 ml Ca2+- and Mg2+-free phosphate-buffered saline, and lysed with Passive lysis buffer (Promega). Firefly luciferase and renilla (sea pansy) luciferase activities were measured sequentially using a Dual-Luciferase Reporter assay system (Promega) and a model TD-20E Luminometer (Turner Design, Sunnyvale, Calif.). After measuring the firefly luciferase signal and the renilla luciferase signal, the index of relative luciferase activity, indicating L-PK transcription activity, was calculated according to manufacturer's instructions (Promega).

[2] = tested on: L-PK gene; test: L-PK promoter luciferase reporter in ChREBP-transfected primary hepatocytes with kinase/phosphatase inhibitors or db-cAMP; details: for transcriptional activity of the L-PK gene in ChREBP-overexpressed hepatocytes: 5.5 and 27.5 mM glucose, 12 h, 10 μM H-89, 500 nM cantharidic acid, 5 μM KN-62, 30 μM PD98059, 50 μM Genistein
Description: Primary hepatocytes were prepared from male Sprague-Dawley rats using the collagenase (Life Technologies, Inc.) perfusion method (Berry and Friend (1969) J Cell Bio […], 506-520) and plated in collagen-coated six-well tissue culture plates (Primaria Falcon, Franklin Lakes, N.J.) at a density of 1×10^6 cells/well in glucose-free Dulbecco's modified Eagle's medium (Life Technologies, Inc.) supplemented with 100 nM dexamethasone, 10 nM insulin, 100 units/ml penicillin, 100 μg/ml streptomycin and 10% dialyzed fetal bovine serum (Life Technologies, Inc.). Following attachment, synthetic liposomes were used to transfect hepatocytes with 0.5 μg of the luciferase reporter plasmid and 0.1 μg of the internal control plasmid pRL-TK. After 14 h the media was replaced by Dulbecco's modified Eagle medium supplemented with 100 nM dexamethasone, 10 nM insulin, 10% Fetal Bovine Serum and either 10 mM lactate, 5.5 mM glucose or 27.5 mM glucose. The cells were incubated for an additional 12 h prior to determination of luciferase activity using the Dual-Luciferase Reporter Assay System (Promega).
Protein Kinase and Protein Phosphatase Inhibitors—Prior to exchange to 5.5 or 27.5 mM glucose medium, transfected primary culture hepatocytes were treated for 1 h with 10 μM H-89, 500 nM cantharidic acid (Calbiochem), 5 μM KN-62 (Calbiochem), 30 μM PD98059 (Calbiochem), 50 μM Genistein, or dimethylsulfoxide vehicle.
Rat primary cultured hepatocytes were transfected a plasmid comprising a gene encoding the wild type (WT)-ChREBP. H-89, cantharidic acid, or dimethylsulfoxide vehicle was added, and the cells were incubated in 5.5 mM (□) or 27.5 mM (▪) glucose for 12 h.
Rat primary cultured hepatocytes were transfected with wild type (WT)-ChREBP, S626A, S626D, T666A, or T666D. After transfection, the cells were incubated in 5.5 mM (□) or 27.5 mM (▪) glucose for 12 h. […] Rat primary cultured hepatocytes were transfected with wild type (WT)-ChREBP, S196A+S626A, or S196A+T666A. After transfection, cells were incubated under 5.5 mM (□) or 27.5 mM (▪) glucose, and cAMP was added both low and high glucose.

[3] = tested on: GFP-fused ChREBP; test: Subcellular localization of GFP-fused ChREBP in primary hepatocytes (confocal microscopy); assay type: cell-based, rat; details: 12 h
Description: Determination of Subcellular Localization of ChREBP—Subcellular localization of GFP-fused WT-ChREBP or its mutants was determined using a confocal laser scanning microscope (Bio Rad, Hercules, Calif.). In order to quantitate nuclear localization of ChREBP, for each condition, 100 transfected hepatocytes from 5 independent experiments were scored in a blinded fashion as to whether the GFP-fused ChREBP was predominantly nuclear or cytoplasmic. The identity of the nucleus was verified by comparative phase-contrast microscopy. B. Results
Rat primary cultured hepatocytes were transfected with a plasmid comprising a gene encoding the GFP-fused wild type-ChREBP or NLS domain deletion mutants. […] The values are expressed as mean±SE. *P<0.05 compared to that of wild type-ChREBP.

[4] = biological target: T1, nuclear Xu-5-P activated PPase (Rattus norvegicus, UniProt P63331); test: Protein phosphatase assay, nuclear Xu-5-P activated PPase of liver; assay type: biochemical; details: for inhibition of nuclear PPase (in words): 500 nM cantharidic acid, 300 nM deltamethrin; for Nuclear PPase activity, +Xu5P / Nuclear PPase activity, None: Mono Q purified, phosphorylated peptide as substrate; for Nuclear PPase activity, None: absence of Xu-5-P
T1 construct: from tissue; host or cells: rat liver nuclear extract, DEAE-cellulose then Mono Q
T1 sequence (P63331 whole entry): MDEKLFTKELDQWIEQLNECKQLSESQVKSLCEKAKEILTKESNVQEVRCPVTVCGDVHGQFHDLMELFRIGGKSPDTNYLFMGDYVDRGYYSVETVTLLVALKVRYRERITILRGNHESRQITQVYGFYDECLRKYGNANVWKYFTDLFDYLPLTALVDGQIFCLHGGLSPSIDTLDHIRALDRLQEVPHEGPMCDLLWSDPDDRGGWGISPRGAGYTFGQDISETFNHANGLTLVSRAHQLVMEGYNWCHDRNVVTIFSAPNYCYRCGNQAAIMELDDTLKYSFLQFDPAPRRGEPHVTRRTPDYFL
T1 sequence (P56932 whole entry partner): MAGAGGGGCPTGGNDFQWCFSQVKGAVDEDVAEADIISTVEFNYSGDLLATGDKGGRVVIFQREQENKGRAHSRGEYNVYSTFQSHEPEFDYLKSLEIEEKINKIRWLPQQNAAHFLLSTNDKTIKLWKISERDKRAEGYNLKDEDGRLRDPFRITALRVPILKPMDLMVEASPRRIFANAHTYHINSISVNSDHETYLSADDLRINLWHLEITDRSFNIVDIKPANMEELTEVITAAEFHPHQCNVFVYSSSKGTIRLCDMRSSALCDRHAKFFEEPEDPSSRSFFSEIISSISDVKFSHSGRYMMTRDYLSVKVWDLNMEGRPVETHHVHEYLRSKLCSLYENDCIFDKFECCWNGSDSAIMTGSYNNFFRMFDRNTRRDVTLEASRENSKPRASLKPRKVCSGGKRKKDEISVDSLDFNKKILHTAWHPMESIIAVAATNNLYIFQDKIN
T1 sequence (Q5XI34 1-589 partner): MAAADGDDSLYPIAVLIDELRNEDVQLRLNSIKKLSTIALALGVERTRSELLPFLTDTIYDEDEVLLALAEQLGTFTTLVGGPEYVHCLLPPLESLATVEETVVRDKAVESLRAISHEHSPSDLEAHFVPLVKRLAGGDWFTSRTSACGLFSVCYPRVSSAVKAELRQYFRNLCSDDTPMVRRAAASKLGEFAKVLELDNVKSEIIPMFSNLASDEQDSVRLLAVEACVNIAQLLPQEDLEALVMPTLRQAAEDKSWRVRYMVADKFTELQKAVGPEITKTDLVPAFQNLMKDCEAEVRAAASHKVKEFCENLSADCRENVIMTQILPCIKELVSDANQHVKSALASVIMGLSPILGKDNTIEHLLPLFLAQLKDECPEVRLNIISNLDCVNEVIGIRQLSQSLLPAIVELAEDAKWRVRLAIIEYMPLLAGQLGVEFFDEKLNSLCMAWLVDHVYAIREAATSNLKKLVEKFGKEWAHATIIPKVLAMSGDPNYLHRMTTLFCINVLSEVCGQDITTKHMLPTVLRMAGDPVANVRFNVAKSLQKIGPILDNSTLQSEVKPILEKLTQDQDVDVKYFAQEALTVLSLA
Description: Liver nuclear extracts were prepared as described in Example 1.
(§1) Synthetic peptides corresponding to amino acids #187-201 ([…] “P1” peptide) (SEQ ID NO:64), #556-573 ([…], “P4” peptide) (SEQ ID NO:65), and #655-674 ([…]; “P3” peptide) (SEQ ID NO:66), of ChREBP were prepared by the Peptide Synthesis Service of University of Texas Southwestern Medical Center. These peptides were phosphorylated by 10 U of PKA for 6 h at 30° C. P4 peptide corresponding to 556-573 ([…]) (SEQ ID NO:65), was phosphorylated by 10 U of AMPK for 5 h at 30° C. The reaction mixtures were passed through on a Dowex AG1X8 column (0.5 cm×5 cm) which had been equilibrated with 30% acetic acid to remove residual [^32P]-ATP. The labeled peptides in the pass through fraction were lyophilized.
(§2) Protein phosphatase activity was determined by the method of Deana et al (Deana et al. (1990) Biochem, Biophys. Acta. 1051: 199-202). The reaction mixture contained in a final volume of 50 μ1,20 mM MOPS, pH 7.0, 1 mM DTT, 25 μg of BSA, and ^32P-labeled substrate for 15 min at 30° C. The reaction was terminated by the addition of 10% trichloroacetic acid. Phosphate released was converted to a phosphomolybdic complex followed by organic solvent (isobutyl alcohol:heptane, 1:1) extraction of the complex. The reaction mixture was mixed thoroughly and centrifuged. An aliquot of the top layer was then added to 5 ml scintillation fluid and counted. One unit of protein phosphatase is defined as that amount which catalyzes the release of 1.0 μmol of ^32P/min at 30° C.
(§3) These peptides were assayed with Mono Q purified cytosolic and nuclear PPases in the presence and absence of 50 μM Xu-5-P.

[5] = biological target: T2, cytosolic Xu-5-P activated PPase (Rattus norvegicus, UniProt P63331); test: Protein phosphatase assay, cytosolic Xu-5-P activated PPase of liver; assay type: biochemical; details: for inhibition of cytosolic Xu-5-P activated PPase (in words): okadaic acid 10 nM (absence and presence of Xu-5-P), cantharidic acid 500 nM, deltamethrin 300 nM; for Cytosol. PPase activity, +Xu5P / Cytosol. PPase activity, None: Mono Q purified, phosphorylated peptide as substrate; for Cytosol. PPase activity, None: absence of Xu-5-P
T2 construct: from tissue; host or cells: rat liver cytosolic extract, DEAE-cellulose then Mono Q
T2 sequence (P63331 whole entry): as the sequence (P63331 whole entry) above
T2 sequence (P56932 whole entry partner): as the sequence (P56932 whole entry partner) above
T2 sequence (Q5XI34 1-589 partner): as the sequence (Q5XI34 1-589 partner) above
Description: Liver was homogenized in a motor-driven Potter-Elvehjem homogenizer in 1 volume of extraction buffer containing 10 mM Hepes (pH 7.9), 10 mM KCl, 0.1 mM EDTA, 0.74 mM spermidine, 0.25 M sucrose, 50 mM imidazole, 1 mM dithiothreitol (DTT), 4 mM phenylmethanesulfonyl fluoride, and 1 mM benzamidine, and the extract was centrifuged at 10,000×g for 30 min.
as §1, §2, §3

[6] = tested on: cultured hepatocytes; test: AMP, ADP, ATP assays in cultured hepatocytes; assay type: cell-based, rat; details: hepatocytes 12 h with 150 µM fatty acid, mean±S.E., n=4
Description: Hepatocytes were scraped and collected directly into 0.5 ml of ice-cold 6% (v/v) HClO4. The concentrations of ADP and ATP were determined enzymatically in the acid-extract with methods described (Kawaguchi, T., Veech, R. L., and Uyeda, K. (2001) J. Biol. Chem. 276, 28554-28561), and the cytosolic AMP was calculated by the method of Veech et al. (Veech, R. L., Lawson, J. W., Cornell, N. W., and Krebs, H. A. (1979) J. Biol. Chem. 254, 6538-6547).
Values are expressed as mean±S.E. (n=4).

[7] = biological target: ChREBP (Carbohydrate Response Element Binding Protein) from rat liver (rat) (UniProt Q8VIP2); test: cell-based or functional assay
Chain of ChREBP (Carbohydrate Response Element Binding Protein) from rat liver (rat) (Q8VIP2 whole entry): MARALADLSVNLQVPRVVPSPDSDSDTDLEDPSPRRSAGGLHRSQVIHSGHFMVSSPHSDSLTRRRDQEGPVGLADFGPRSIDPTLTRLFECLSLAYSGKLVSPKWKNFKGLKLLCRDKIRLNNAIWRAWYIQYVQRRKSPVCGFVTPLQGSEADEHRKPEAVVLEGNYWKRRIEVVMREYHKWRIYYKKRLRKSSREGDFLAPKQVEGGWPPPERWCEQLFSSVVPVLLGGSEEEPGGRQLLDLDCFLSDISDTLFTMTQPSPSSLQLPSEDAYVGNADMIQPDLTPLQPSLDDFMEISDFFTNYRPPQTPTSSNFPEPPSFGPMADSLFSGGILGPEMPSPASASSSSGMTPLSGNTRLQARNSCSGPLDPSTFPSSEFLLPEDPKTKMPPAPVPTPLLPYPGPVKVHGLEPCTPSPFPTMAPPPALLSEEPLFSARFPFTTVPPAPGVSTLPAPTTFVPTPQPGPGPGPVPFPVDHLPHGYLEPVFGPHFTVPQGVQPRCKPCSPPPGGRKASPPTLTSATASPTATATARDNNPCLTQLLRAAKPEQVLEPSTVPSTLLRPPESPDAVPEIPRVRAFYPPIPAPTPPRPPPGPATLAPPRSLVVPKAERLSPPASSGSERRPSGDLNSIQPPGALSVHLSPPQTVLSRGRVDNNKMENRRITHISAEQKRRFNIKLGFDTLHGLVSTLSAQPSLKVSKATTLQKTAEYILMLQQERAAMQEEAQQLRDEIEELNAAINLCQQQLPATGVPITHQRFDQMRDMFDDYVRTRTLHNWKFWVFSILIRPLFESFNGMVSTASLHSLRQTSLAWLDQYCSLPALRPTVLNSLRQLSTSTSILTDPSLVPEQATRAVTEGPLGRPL

[8] = tested on: T3, P3 peptide of ChREBP (amino acids #655-674), phosphorylated by PKA
T3 sequence: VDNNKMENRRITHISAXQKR

[9] = tested on: T4, P1 peptide of ChREBP (amino acids #187-201), phosphorylated by PKA
T4 sequence: YYKKRLRKSSREGDF

[10] = tested on: T5, P4 peptide of ChREBP (amino acids #556-573), phosphorylated by AMPK
T5 sequence: STVPSTLLRPPESPDAVP

[11] = Mono Q purified enzyme, 50 μM Xu-5-P

`NC(=O)c1ncn([C@@H]2O[C@H](COP(=O)(O)O)[C@@H](O)[C@H]2O)c1N` [AICAR, 5-amino-4-imidazolecarboxamide ribotide] was tested, and the “inhibition of glucose activation of L-PK gene transcription” value ([1]; AICAR 50 μM) was “approximately 80%” and the “inhibition of glucose activation of L-PK gene transcription” value ([1]; AICAR 200 μM) was “over 90%”.

In the case of `O=c1c(-c2ccc(O)cc2)coc2cc(O)cc(O)c12` [Genistein], the “transcriptional activity of the L-PK gene in ChREBP-overexpressed hepatocytes” value [2] is reported as “did not affect”.

For `O=S(=O)(NCCNC/C=C/c1ccc(Br)cc1)c1cccc2cnccc12` [H-89], the “nuclear staining rate of GFP-fused ChREBP” value ([3]; 5.5 mM glucose, 10 μM H-89) was “increased”, the “effect on endogenous ChREBP (L-PK transcriptional activity)” value ([2]; 10 μM H-89, hepatocytes without ChREBP overexpression) was “stimulated” and the “transcriptional activity of the L-PK gene in ChREBP-overexpressed hepatocytes” value [2] was “increased”.

In the case of `CN([C@@H](Cc1ccc(OS(=O)(=O)c2cccc3cnccc23)cc1)C(=O)N1CCN(c2ccccc2)CC1)S(=O)(=O)c1cccc2cnccc12` [KN-62], the “transcriptional activity of the L-PK gene in ChREBP-overexpressed hepatocytes” value [2] is reported as “did not affect”.

`COc1cccc(-c2cc(=O)c3ccccc3o2)c1N` [PD98059] was tested, and the “transcriptional activity of the L-PK gene in ChREBP-overexpressed hepatocytes” value [2] was “did not affect”.

For `O=C(CO)[C@@H](O)[C@H](O)COP(=O)(O)O` [Xu-5-P], the “extent of activation of nuclear PPase by Xu-5-P” value [4, 11] was 1.8 fold, the “activation of nuclear PPase, P3 peptide substrate” value ([4]; crude nuclear extract, added Xu-5-P) was “activated” and the “activation of nuclear PPase, P4 peptide substrate” value ([4]; nuclear extract) was “activated”. The “extent of activation of cytosolic PPase by Xu-5-P” value [5, 11] was 1.8 fold and the “activation of P1 dephosphorylation by PPase of desalted cytosolic liver extract” value ([5]; only metabolite among glycolysis and pentose shunt intermediates examined) was “able to activate”.

`CC(=O)O` [acetate] gave an AMP [6] of 910 ± 87 nmol/g cells.

For `CC1(C(=O)O)C2CCC(O2)C1(C)C(=O)O` (centres unmarked) [cantharidic acid], the “inhibition of nuclear PPase (in words)” value [4] was “completely inhibited”, the “inhibition of cytosolic Xu-5-P activated PPase (in words)” value [5] was “completely” and the “nuclear staining rate of GFP-fused ChREBP” value ([3]; 500 nM cantharidic acid, 5.5 or 27.5 mM glucose) was “significantly decreased”. The “transcriptional activity of the L-PK gene in ChREBP-overexpressed hepatocytes” value [2] was “inhibited”.

In the case of `CC1(C)[C@H](C(=O)O[C@H](C#N)c2cccc(Oc3ccccc3)c2)[C@@H]1C=C(Br)Br` [deltamethrin], the “inhibition of nuclear PPase (in words)” value [4] is reported as “not affected” and the “inhibition of cytosolic Xu-5-P activated PPase (in words)” value [5] is reported as “did not affect”.

In the case of “P1 peptide: synthetic peptide, amino acids #187-201 of ChREBP, YYKKRLRKSSREGDF, phosphorylated by PKA (also: phosphorylated by PKA, site not given here)”, the “Nuclear PPase activity, +Xu5P” value ([4]; 50 μM Xu-5-P) is reported as 0.93 units/mg, the “Nuclear PPase activity, None” value [4] is reported as 0.55 units/mg and the “Cytosol. PPase activity, +Xu5P” value ([5]; 50 μM Xu-5-P) is reported as 11.2 units/mg. The “Cytosol. PPase activity, None” value [5] was 6.2 units/mg.

For “P3 peptide: synthetic peptide, amino acids #655-674 of ChREBP, VDNNKMENRRITHISAEQKR, phosphorylated by PKA (also: phosphorylated by PKA, site not given here)”, the “Nuclear PPase activity, +Xu5P” value ([4]; 50 μM Xu-5-P) was 0.94 units/mg, the “Nuclear PPase activity, None” value [4] was 0.52 units/mg and the “Cytosol. PPase activity, +Xu5P” value ([5]; 50 μM Xu-5-P) was 11.0 units/mg. For the same compound, the “Cytosol. PPase activity, None” value [5] was 6.0 units/mg.

Compound “catalytic subunit of cAMP-dependent protein kinase (PKA) (enzyme)” has a reduction in DNA-binding activity of ChREBP after phosphorylation (gel shift) [7] of 90%.

Work on “cytosolic Xu-5-P activated PPase (Mono Q purified, rat liver)” yielded a PPase activity (units/mg), +Xu5P (50 µM) [8] of 11 units/mg, a PPase activity (units/mg), no Xu-5-P [8] of 6 units/mg and a PPase activity (units/mg), +Xu5P (50 µM) [9] of 11.2 units/mg. For the same compound, the PPase activity (units/mg), no Xu-5-P [9] was 6.2 units/mg, the PPase activity (units/mg), +Xu5P (50 µM) [10] was 8.8 units/mg and the PPase activity (units/mg), no Xu-5-P [10] was 5.2 units/mg.

Compound “nuclear Xu-5-P activated PPase (Mono Q purified, rat liver)” has a PPase activity (units/mg), +Xu5P (50 µM) [8] of 0.94 units/mg, a PPase activity (units/mg), no Xu-5-P [8] of 0.52 units/mg and a PPase activity (units/mg), +Xu5P (50 µM) [9] of 0.93 units/mg. It also gave a PPase activity (units/mg), no Xu-5-P [9] of 0.55 units/mg, a PPase activity (units/mg), +Xu5P (50 µM) [10] of 0.67 units/mg and a PPase activity (units/mg), no Xu-5-P [10] of 0.39 units/mg.
